Assay results published in US20200283773.

Target: nucleolin on surface of HCT116 p53-/- cells (Homo sapiens) (UniProt P19338)
Assay: flow
Settings: 2'-F pyrimidines, unit inferred

nucleolin on surface of HCT116 p53-/- cells (Homo sapiens), sequence (P19338 2-710): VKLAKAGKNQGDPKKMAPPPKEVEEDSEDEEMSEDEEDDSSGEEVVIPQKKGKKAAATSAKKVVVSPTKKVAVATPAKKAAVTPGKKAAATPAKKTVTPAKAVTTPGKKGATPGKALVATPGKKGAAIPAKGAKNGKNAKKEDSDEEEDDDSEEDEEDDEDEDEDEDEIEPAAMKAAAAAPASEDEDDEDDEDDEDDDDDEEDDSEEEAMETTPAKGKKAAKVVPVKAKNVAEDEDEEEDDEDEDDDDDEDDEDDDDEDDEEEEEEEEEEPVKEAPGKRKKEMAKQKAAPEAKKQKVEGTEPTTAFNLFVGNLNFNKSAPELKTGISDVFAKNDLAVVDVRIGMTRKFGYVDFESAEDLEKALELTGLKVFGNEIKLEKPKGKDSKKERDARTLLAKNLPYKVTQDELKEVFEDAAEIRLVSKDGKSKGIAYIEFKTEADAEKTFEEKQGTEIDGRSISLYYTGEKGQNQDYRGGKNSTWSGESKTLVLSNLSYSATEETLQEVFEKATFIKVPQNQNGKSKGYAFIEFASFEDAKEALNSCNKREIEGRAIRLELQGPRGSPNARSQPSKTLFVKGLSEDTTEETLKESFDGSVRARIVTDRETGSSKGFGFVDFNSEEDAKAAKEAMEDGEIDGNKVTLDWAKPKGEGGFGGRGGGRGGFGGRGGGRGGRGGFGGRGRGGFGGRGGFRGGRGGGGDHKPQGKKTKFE

Sequence	Kd (DL650-labeled Ev5, HCT116 p53-/- cells, Bmax 2.064) [nM]	Kd (DL650-labeled Ev3, HCT116 p53-/- cells, Bmax 3.214) [nM]
GGAAGAGGGAUGGGCACGGUCCAGCGCUAACUGUACCUGCUGUGCCACCCACC [Ev5]	50.7	–
GGGAGAGAGGAAGAGGGAUGGGCACGGUCCAGCGCUAACUGUACCUGCUGUGCCACCCACCG [Ev3]	–	119
